# Source: IntAct's records for PubMed 31515488
# B1: Isoform 6 of F-box only protein 11 (Homo sapiens), Q86XK2-6 (parent)
# chain: MVAEESGPGAQNSPYQLRRKTLLPKRTACPTKNSMEGASTSTTENFGHRAKRARVSGKSQDLSAAPAEQYLQEKLPDEVVLKIFSYLLEQDLCRAACVCKRFSELANDPILWKRLYMEVFEYTRPMMHPEPGKFYQINPEEYEHPNPWKESFQQLYKGAHVKPGFAEHFYSNPARYKGRENMLYYDTIEDALGGVQEAHFDGLIFVHSGIYTDEWIYIESPITMIGAAPGKVADKVIIENTRDSTFVFMEGSEDAYVGYMTIRFNPDDKSAQHHNAHHCLEITVNCSPIIDHCIIRSTCTVGSAVCVSGQGACPTIKHCNISDCENVGLYITDHAQGIYEDNEISNNALAGIWVKNHGNPIIRRNHIHHGRDVGVFTFDHGMGYFESCNIHRNRIAGFEVKAYANPTVVRCEIHHGQTGGIYVHEKGRGQFIENKIYANNFAGVWITSNSDPTIRGNSIFNGNQGGVYIFGDGRGLIEGNDIYGNALAGIQIRTNSCPIVRHNKIHDGQHGGIYVHEKGQGVIEENEVYSNTLAGVWVTTGSTPVLRRNRIHSGKQVGVYFYDNGHGVLEDNDIYNHMYSGVQIRTGSNPKIRRNKIWGGQNGGILVYNSGLGCIEDNEIFDNAMAGVWIKTDSNPTLRRNKIHDGRDGGICIFNGGRGLLEENDIFRNAQAGVLISTNSHPILRKNRIFDGFAAGIEITNHATATLEGNQIFNNRFGGLFLASGVNVTMKDNKIMNNQDAIEKAVSRGQCLYKISSYTSYPMHDFYRCHTCNTTDRNAICVNCIKKCHQGHDVEFIRHDRFFCDCGAGTLSNPCTLAGEPTHDTDTLYDSAPPIESNTLQHN
# B2: Dolichyl-diphosphooligosaccharide--protein glycosyltransferase subunit 1 (Homo sapiens), P04843 (parent)
# chain: MEAPAAGLFLLLLLGTWAPAPGSASSEAPPLINEDVKRTVDLSSHLAKVTAEVVLAHLGGGSTSRATSFLLALEPELEARLAHLGVQVKGEDEEENNLEVRETKIKGKSGRFFTVKLPVALDPGAKISVIVETVYTHVLHPYPTQITQSEKQFVVFEGNHYFYSPYPTKTQTMRVKLASRNVESYTKLGNPTRSEDLLDYGPFRDVPAYSQDTFKVHYENNSPFLTITSMTRVIEVSHWGNIAVEENVDLKHTGAVLKGPFSRYDYQRQPDSGISSIRSFKTILPAAAQDVYYRDEIGNVSTSHLLILDDSVEMEIRPRFPLFGGWKTHYIVGYNLPSYEYLYNLGDQYALKMRFVDHVFDEQVIDSLTVKIILPEGAKNIEIDSPYEISRAPDELHYTYLDTFGRPVIVAYKKNLVEQHIQDIVVHYTFNKVLMLQEPLLVVAAFYILFFTVIIYVRLDFSITKDPAAEARMKVACITEQVLTLVNKRIGLYRHFDETVNRYKQSRDISTLNSGKKSLETEHKALTSEIALLQSRLKTEGSDLCDRVSEMQKLDAQVKELVLKSAVEAERLVAGKLKKDTYIENEKLISGKRQELVTKIDHILDAL
# B3: Mediator of RNA polymerase II transcription subunit 18 (Homo sapiens), Q9BUE0 (parent)
# chain: MEAPPVTMMPVTGGTINMMEYLLQGSVLDHSLESLIHRLRGLCDNMEPETFLDHEMVFLLKGQQASPFVLRARRSMDRAGAPWHLRYLGQPEMGDKNRHALVRNCVDIATSENLTDFLMEMGFRMDHEFVAKGHLFRKGIMKIMVYKIFRILVPGNTDSTEALSLSYLVELSVVAPAGQDMVSDDMKNFAEQLKPLVHLEKIDPKRLM
# partner: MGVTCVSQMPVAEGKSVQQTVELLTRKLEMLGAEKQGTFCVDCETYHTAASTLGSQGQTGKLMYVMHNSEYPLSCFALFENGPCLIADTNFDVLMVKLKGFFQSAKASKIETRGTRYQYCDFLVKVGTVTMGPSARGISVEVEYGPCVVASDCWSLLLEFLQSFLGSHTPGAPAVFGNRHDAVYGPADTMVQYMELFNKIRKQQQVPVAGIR
# B4: Keratin-associated protein 26-1 (Homo sapiens), Q6PEX3 (parent)
# chain: MSCPNYCSGNSNSGSLRTSRHIPLTSIDLCPTSVSCGDVLYLPTSSQDHTWVTDNCQETCGEPTSCQPVHCETGNLETSCGSSTAYYVPRPCQGSSFLPASFFSSSCLPVSCRPQRYVSSGCRPLRPLLNSYQPIGDCVPNAYRPQFCLSKSCQPQNLLTSGCQPSSCLAYRPQSLHVVSSSLRPLGPLFSGCQPLTHVFSTCRPSCSGL
# B5: Protein boule-like (Homo sapiens), Q8N9W6 (parent)
# chain: MQTDSLSPSPNPVSPVPLNNPTSAPRYGTVIPNRIFVGGIDFKTNESDLRKFFSQYGSVKEVKIVNDRAGVSKGYGFVTFETQEDAQKILQEAEKLNYKDKKLNIGPAIRKQQVGIPRSSIMPAAGTMYLTTSTGYPYTYHNGVAYFHTPEVTSVPPPWPSRSVCSSPVMVAQPIYQQPAYHYQATTQYLPGQWQWSVPQPSASSAPFLYLQPSEVIYQPVEIAQDGGCVPPPLSLMETSVPEPYSDHGVQATYHQVYAPSAITMPAPVMQPEPIKTVWSIHY
# partner: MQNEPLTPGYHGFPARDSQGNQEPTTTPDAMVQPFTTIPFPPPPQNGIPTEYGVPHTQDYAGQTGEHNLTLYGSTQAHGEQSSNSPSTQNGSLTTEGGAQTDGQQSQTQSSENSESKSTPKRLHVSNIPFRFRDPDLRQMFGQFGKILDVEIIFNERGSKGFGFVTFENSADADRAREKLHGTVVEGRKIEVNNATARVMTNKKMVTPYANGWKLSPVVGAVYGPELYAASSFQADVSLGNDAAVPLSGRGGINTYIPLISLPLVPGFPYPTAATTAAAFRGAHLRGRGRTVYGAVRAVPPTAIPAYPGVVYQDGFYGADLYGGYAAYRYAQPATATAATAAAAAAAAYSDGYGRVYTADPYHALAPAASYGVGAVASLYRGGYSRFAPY
# B6: Coiled-coil domain-containing protein 92 (Homo sapiens), Q53HC0 (parent)
# chain: MTSPHFSSYDEGPLDVSMAATNLENQLHSAQKNLLFLQREHASTLKGLHSEIRRLQQHCTDLTYELTVKSSEQTGDGTSKSSELKKRCEELEAQLKVKENENAELLKELEQKNAMITVLENTIKEREKKYLEELKAKSHKLTLLSSELEQRASTIAYLTSQLHAAKKKLMSSSGTSDASPSGSPVLASYKPAPPKDKLPETPRRRMKKSLSAPLHPEFEEVYRFGAESRKLLLREPVDAMPDPTPFLLARESAEVHLIKERPLVIPPIASDRSGEQHSPAREKPHKAHVGVAHRIHHATPPQAQPEVKTLAVDQVNGGKVVRKHSGTDRTV
# partner: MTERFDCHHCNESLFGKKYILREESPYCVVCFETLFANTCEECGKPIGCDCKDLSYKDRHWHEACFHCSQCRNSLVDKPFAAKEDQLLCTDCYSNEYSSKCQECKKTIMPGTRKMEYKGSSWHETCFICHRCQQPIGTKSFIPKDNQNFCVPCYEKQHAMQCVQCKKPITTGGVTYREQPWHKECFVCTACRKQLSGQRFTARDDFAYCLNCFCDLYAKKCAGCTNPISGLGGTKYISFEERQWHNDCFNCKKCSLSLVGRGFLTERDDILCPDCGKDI
# B7: RUN and FYVE domain-containing protein 1 (Homo sapiens), Q96T51-2 (parent)
# chain: MMEERANLMHMMKLSIKVLLQSALSLGRSLDADHAPLQQFFVVMEHCLKHGLKVKKSFIGQNKSFFGPLELVEKLCPEASDIATSVRNLPELKTAVGRGRAWLYLALMQKKLADYLKVLIDNKHLLSEFYEPEALMMEEEGMVIVGLLVGLNVLDANLCLKGEDLDSQVGVIDFSLYLKDVQDLDGGKEHERITDVLDQKNYVEELNRHLSCTVGDLQTKIDGLEKTNSKLQEELSAATDRICSLQEEQQQLREQNELIRERSEKSVEITKQDTKVELETYKQTRQGLDEMYSDVWKQLKEEKKVRLELEKELELQIGMKTEMEIAMKLLEKDTHEKQDTLVALRQQLEEVKAINLQMFHKAQNAESSLQQKNEAITSFEGKTNQVMSSMKQMEERLQHSERARQGAEERSHKLQQELGGRIGALQLQLSQLHEQCSSLEKELKSEKEQRQALQRELQHEKDTSSLLRMELQQVEGLKKELRELQDEKAELQKICEEQEQALQEMGLHLSQSKLKMEDIKEVNQALKGHAWLKDDEATHCRQCEKEFSISRRKHHCRNCGHIFCNTCSSNELALPSYPKPVRVCDSCHTLLLQRCSSTAS
# partner: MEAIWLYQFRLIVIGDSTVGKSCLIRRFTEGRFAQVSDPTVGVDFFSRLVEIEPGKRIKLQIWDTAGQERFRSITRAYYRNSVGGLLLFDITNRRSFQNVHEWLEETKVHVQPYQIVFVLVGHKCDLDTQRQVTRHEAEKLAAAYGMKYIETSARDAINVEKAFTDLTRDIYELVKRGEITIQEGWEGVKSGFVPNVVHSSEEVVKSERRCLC
# B8: Coiled-coil domain-containing protein 172 (Homo sapiens), P0C7W6 (parent)
# chain: MSLESLFQHIIFTEHQAEESRRLMREVRSEITRCREKIKKATEELNEEKIKLESKVQQFFEKSFFLQLLKAHENALEKQYSEITNHRNMLLQTFEAIKKQMIEEEDKFIKEITDFNNDYEITKKRELLMKENVKIEISDLENQANMLKSEMKSMEHDSSQLNELQKQKSELIQELFTLQRKLKVFEDEENESICTTKYLEAEKIKISEKPQNDTECLRLKKELELYKEDDMESVYEALQTEIEFLELTLAQKDLQESK
# partner: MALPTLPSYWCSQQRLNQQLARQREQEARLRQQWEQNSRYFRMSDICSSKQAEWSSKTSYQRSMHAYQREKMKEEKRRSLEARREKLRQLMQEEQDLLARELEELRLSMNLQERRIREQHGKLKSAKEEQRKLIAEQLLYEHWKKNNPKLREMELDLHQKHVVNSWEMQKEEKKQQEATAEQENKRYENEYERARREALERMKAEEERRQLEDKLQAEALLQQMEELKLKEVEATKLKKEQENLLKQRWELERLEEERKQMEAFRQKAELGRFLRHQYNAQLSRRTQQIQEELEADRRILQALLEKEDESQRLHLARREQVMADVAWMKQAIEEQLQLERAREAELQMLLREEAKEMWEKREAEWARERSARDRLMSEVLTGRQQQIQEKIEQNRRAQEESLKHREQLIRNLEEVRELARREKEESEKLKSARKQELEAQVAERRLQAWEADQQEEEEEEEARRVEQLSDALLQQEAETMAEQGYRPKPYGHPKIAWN
# B9: Hypoxia-inducible factor 1-alpha inhibitor (Homo sapiens), Q9NWT6 (parent)
# chain: MAATAAEAVASGSGEPREEAGALGPAWDESQLRSYSFPTRPIPRLSQSDPRAEELIENEEPVVLTDTNLVYPALKWDLEYLQENIGNGDFSVYSASTHKFLYYDEKKMANFQNFKPRSNREEMKFHEFVEKLQDIQQRGGEERLYLQQTLNDTVGRKIVMDFLGFNWNWINKQQGKRGWGQLTSNLLLIGMEGNVTPAHYDEQQNFFAQIKGYKRCILFPPDQFECLYPYPVHHPCDRQSQVDFDNPDYERFPNFQNVVGYETVVGPGDVLYIPMYWWHHIESLLNGGITITVNFWYKGAPTPKRIEYPLKAHQKVAIMRNIEKMLGEALGNPQEVGPLLNTMIKGRYN
# B10: Glutathione S-transferase Mu 5 (Homo sapiens), P46439 (parent)
# chain: MPMTLGYWDIRGLAHAIRLLLEYTDSSYVEKKYTLGDAPDYDRSQWLNEKFKLGLDFPNLPYLIDGAHKITQSNAILRYIARKHNLCGETEEEKIRVDILENQVMDNHMELVRLCYDPDFEKLKPKYLEELPEKLKLYSEFLGKRPWFAGDKITFVDFLAYDVLDMKRIFEPKCLDAFLNLKDFISRFEGLKKISAYMKSSQFLRGLLFGKSATWNSK
# Variants of: B1
# Details: with skp1_human SKP1, P63208
# Sequence of skp1_human SKP1, P63208 (P63208 whole entry): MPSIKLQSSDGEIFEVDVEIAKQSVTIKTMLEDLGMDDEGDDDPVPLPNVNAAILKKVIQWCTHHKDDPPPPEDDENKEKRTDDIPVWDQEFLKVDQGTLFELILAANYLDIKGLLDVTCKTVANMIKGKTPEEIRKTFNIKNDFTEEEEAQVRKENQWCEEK
row,Variant,effect of a mutation on the interaction
1,T532S,with no effect

# Variants of: B2
# Details: with ubql1_human UBQLN1, Q9UMX0
# Sequence of ubql1_human UBQLN1, Q9UMX0 (Q9UMX0 whole entry): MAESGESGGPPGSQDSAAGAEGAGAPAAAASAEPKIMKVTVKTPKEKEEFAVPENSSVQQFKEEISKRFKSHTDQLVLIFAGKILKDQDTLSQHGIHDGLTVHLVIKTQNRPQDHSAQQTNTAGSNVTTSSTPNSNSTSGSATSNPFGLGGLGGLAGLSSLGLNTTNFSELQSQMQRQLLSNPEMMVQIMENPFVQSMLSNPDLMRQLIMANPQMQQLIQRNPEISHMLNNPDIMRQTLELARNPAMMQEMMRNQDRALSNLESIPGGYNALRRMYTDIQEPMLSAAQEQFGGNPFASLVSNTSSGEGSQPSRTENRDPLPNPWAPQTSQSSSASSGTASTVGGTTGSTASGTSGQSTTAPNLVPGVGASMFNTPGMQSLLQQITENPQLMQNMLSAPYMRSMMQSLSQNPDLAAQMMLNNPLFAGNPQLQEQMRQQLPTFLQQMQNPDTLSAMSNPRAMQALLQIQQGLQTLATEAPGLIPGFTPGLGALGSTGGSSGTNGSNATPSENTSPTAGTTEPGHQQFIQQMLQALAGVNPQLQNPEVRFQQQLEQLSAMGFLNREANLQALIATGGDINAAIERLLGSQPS
row,Variant,effect of a mutation on the interaction
1,F203L,disrupting interaction strength

# Variants of: B2
# Details: with sgta_human SGTA
row,Variant,effect of a mutation on the interaction
1,F203L,with no effect

# Variants of: B3
# Details: with med20_human MED20, Q9H944
row,Variant,effect of a mutation on the interaction
1,M19V,with no effect

# Variants of: B4
# Details: with grn_human GRN
row,Variant,effect of a mutation on the interaction
1,S26Y,disrupting interaction strength

# Variants of: B4
# Details: with ccnjl_human CCNJL
row,Variant,effect of a mutation on the interaction
1,S26Y,with no effect

# Variants of: B5
# Details: with rfox2_human RBFOX2, O43251
row,Variant,effect of a mutation on the interaction
1,M270I,with no effect

# Variants of: B6
# Details: with fhl2_human FHL2, Q14192
row,Variant,effect of a mutation on the interaction
1,S70C,with no effect

# Variants of: B7
# Details: with rb39b_human RAB39B
row,Variant,effect of a mutation on the interaction
1,C159F,with no effect

# Variants of: B8
# Details: with tchp_human TCHP
row,Variant,effect of a mutation on the interaction
1,I10V,with no effect

# Variants of: B9
# Details: with asb9_human ASB9, Q96DX5
# Sequence of asb9_human ASB9, Q96DX5 (Q96DX5 whole entry): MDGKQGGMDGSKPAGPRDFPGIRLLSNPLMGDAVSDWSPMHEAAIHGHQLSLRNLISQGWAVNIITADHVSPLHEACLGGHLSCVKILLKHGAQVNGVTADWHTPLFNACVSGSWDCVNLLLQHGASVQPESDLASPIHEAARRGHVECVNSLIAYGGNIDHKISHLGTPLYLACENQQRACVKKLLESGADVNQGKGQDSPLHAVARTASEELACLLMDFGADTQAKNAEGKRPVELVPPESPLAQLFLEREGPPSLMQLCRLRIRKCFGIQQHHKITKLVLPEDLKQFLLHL
row,Variant,effect of a mutation on the interaction
1,P41A,with no effect

# Variants of: B10
# Details: with amol2_human AMOTL2, Q9Y2J4
# Sequence of amol2_human AMOTL2, Q9Y2J4 (Q9Y2J4 whole entry): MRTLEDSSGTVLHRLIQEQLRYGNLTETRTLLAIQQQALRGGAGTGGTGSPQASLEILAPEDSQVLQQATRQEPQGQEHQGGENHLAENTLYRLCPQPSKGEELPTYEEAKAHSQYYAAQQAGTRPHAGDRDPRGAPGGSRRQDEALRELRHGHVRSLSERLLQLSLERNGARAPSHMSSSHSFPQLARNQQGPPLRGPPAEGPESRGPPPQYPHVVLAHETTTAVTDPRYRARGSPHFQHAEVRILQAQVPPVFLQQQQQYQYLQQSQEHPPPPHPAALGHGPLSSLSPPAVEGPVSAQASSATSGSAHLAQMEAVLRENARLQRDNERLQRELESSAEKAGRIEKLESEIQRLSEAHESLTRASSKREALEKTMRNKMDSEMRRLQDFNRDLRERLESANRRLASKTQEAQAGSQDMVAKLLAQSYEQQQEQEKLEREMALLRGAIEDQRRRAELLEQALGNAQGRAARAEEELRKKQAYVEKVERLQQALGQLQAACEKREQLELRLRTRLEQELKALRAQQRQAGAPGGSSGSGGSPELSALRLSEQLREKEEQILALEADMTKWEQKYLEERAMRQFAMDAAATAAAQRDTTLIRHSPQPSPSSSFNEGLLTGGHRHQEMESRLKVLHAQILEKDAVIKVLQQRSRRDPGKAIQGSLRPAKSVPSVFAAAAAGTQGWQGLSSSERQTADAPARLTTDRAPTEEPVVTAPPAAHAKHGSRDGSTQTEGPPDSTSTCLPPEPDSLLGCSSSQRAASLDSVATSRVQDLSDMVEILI
row,Variant,effect of a mutation on the interaction
1,L179P,with no effect
